Experimental findings from patent US20200330603A1, “PEPTIDES FOR RENAL THERAPY” (FRED HUTCHINSON CANCER RESEARCH CENTER, priority 2015, published 2020) are described below.

In data set [1] the test system is trypsin. The data set is described as follows: Peptide stability in the presence of trypsin, RP-HPLC. The format is in vitro ADME. As to conditions: 5 μg trypsin, pH 7.0, 30 minutes at 37.5° C. How it is done:
(§1) This example describes peptide stability in the presence of pepsin, trypsin, a reducing agent, or elevated temperature. Peptides were first suspended in 500 µl of ddH2O to a stock concentration of 2 mg/ml. […] These reactions were then quenched with 5 μg of soybean trypsin inhibitor (I) and, in some cases, 10 mM dithiothreitol (DTT). […] Temperature stability was tested by incubating peptides in non-reducing conditions at 70° C. for 1 hour. Stability was evaluated by RP-HPLC.

Data set [2] in a line: Peptide stability to a reducing agent (DTT), RP-HPLC. The format is physicochemical. As to conditions: 10 mM DTT in PBS, room temperature, 30 minutes. On the procedure:
as §1

Data set [3] in a line: Whole body autoradiography of 14C labeled peptides, renal cortex and blood. The format is in vivo, mice. As to conditions: for Signal ratio Kidney:Blood (3 hours) / Signal ratio Kidney:Blood (24 hours): renal cortex vs blood from the ventricle, 100 nmol iv; for Pixel density-Bkg/area (3 hours) / Pixel density-Bkg/area (24 hours): renal cortex, 100 nmol 14C labeled peptide iv. An excerpt: This example describes radiolabeling of peptides of this disclosure. Several knotted peptides were radiolabeled by reductive methylation with ^14C formaldehyde and sodium cyanoborohydride with standard techniques. The sequences were engineered to have the amino acids, “G” and “S” at the N terminus. See Methods in Enzymology V91:1983 p. 570 and JBC 254(11):1979 p. 4359. An excess of formaldehyde was used to ensure complete methylation (dimethylation of every free amine). The labeled peptides were isolated via solid-phase extraction on Strata-X columns (Phenomenex 8B-S100-AAK), rinsed with water with 5% methanol, and recovered in methanol with 2% formic acid. Solvent was subsequently removed in a blowdown evaporator with gentle heat and a stream of nitrogen gas. The final product was verified and characterized by high performance liquid chromatography (HPLC).
This example illustrates accumulation of peptides of the present disclosure in kidneys measured by whole body autoradiography. Peptides of the present disclosure were radiolabeled as described in EXAMPLE 2. 100 nmol of ^14C labeled peptides were administered intravenously in mice. Radiolabeled peptide signal was quantified in the renal cortex and blood from the ventricle in 2-3 sections per mouse in 2 mice total. Whole body autoradiography analysis was performed with AIDA.
SEQ ID NO: 55 and SEQ ID NO: 119 ([…]), a linearized version of SEQ ID NO: 55, were radiolabeled with ^14C as described in EXAMPLE 2 and administered intravenously in mice at a dose of 100 nmol. Radiolabeled peptide signal was quantified in the renal cortex and blood from the ventricle in 2-3 sections per mouse in 2 mice total. Whole body autoradiography analysis was performed with AIDA.

Data set [4] deals with pepsin. The data set is described as follows: Peptide stability in the presence of pepsin, RP-HPLC. The format is in vitro ADME. Particulars: 20 μg pepsin, pH 1.05, 30 minutes at 37.5° C. On the procedure:
as §1

Data set [5] in a line: Temperature stability at 70° C., RP-HPLC. The format is physicochemical. As to conditions: non-reducing conditions, 70° C. for 1 hour. How it is done: as §1

Where “and” joins values, the source holds several entries; their conditions need not be identical. Equal values may be shown once.

Regarding “GSNFKVEGACSKPCRKYCIDKGARNGKCINGRCHCYY [SEQ ID NO: 19]”, in data set [1], the Trypsin entry was “Partially Resistant”. The Reduction result in data set [2] is recorded as “Not Resistant”.
As to “GSVRIPVSCRHSGQCLRPCRDAGMRFGRCMNGRCDCTPR [SEQ ID NO: 57]”, in data set [3], the “Signal ratio Kidney:Blood (3 hours)” value turned out to be 8, the “Signal ratio Kidney:Blood (24 hours)” value is on record as 6.4, the “Pixel density-Bkg/area (3 hours)” value turned out to be 4.63E+06 and the “Pixel density-Bkg/area (24 hours)” value was 1.03E+06.
Turning to “GSACLAEYQKCEGSTVPCCPGLSCSAGRFRKTKLCTK [SEQ ID NO: 32]”, the Trypsin entry in data set [1] is “Not Resistant”. Besides, the Pepsin result in data set [4] is “Resistant”. For the same sequence, the “Temperature (70° C.)” value in data set [5] is recorded as “Resistant”. Besides, the Reduction result in data set [2] was “Not Resistant”.
As to “GSGVPINVRSRGSRDSLDPSRRAGMRFGRSINSRSHSTP [SEQ ID NO: 119, reference compound]”, in data set [3], the “Signal ratio Kidney:Blood (3 hours)” value came to 5.1, the “Signal ratio Kidney:Blood (24 hours)” value is 6.9, the “Pixel density-Bkg/area (3 hours)” value came to 1.71E+06 and the “Pixel density-Bkg/area (24 hours)” value is listed as 2.41E+06.
On to “GSACQFWSCNSSCISRGYRQGYCWGIQYKYCQCQ [SEQ ID NO: 34]”, for which the Trypsin result in data set [1] is recorded as “Partially Resistant”. In addition, the Reduction result in data set [2] is reported as “Not Resistant”.
For the sequence “GSNCAGYMRECKEKLCCSGYVCSSRWKWCVLPAPWRR [SEQ ID NO: 25]”, in data set [1], the Trypsin entry was “Partially Resistant”. For the same sequence, the Reduction entry in data set [2] is on record as “Not Resistant”.
Take “GSQVSTNKKCSNTSQCYKTCEKVVGVAAGKCMNGKCICYP [SEQ ID NO: 37]”: in data set [1], the Trypsin entry is recorded as “Partially Resistant”. In addition, in data set [2], the Reduction entry is “Not Resistant”.
Turning to “GSAVCNLKRCQLSCRSLGLLGKCIGDKCECVKHG [SEQ ID NO: 22]”, the Trypsin result in data set [1] is on record as “Partially Resistant”. Besides, in data set [2], the Reduction result is reported as “Not Resistant”.
For “GSQVQTNVKCQGGSCASVCRREIGVAAGKCINGKCVCYRN [SEQ ID NO: 17]”, the Trypsin entry in data set [1] was “Partially Resistant”. Besides, the Reduction entry in data set [2] is “Not Resistant”.
In the case of “GSRPTDIKCSASYQCFPVCKSRFGKTNGRCVNGLCDCF [SEQ ID NO: 24]”, in data set [1], the Trypsin result is “Partially Resistant”. The Reduction result in data set [2] is reported as “Resistant”.
Take “GSVRIPVSCKHSGQCLKPCKDAGMRFGKCMNGKCDCTPK [SEQ ID NO: 12]”: in data set [1], the Trypsin entry is “Not Resistant”. In data set [2], the Reduction result is reported as “Partially Resistant”.
For the sequence “GSQFCGTNGKPCVNGQCCGALRCVVTYHYADGVCLKMNP [SEQ ID NO: 23]”, in data set [1], the Trypsin result was “Partially Resistant”. The Reduction result in data set [2] was “Not Resistant”.
As for “GSSCAKPGEMCMRIKCCDGQCGCNRGTGRCFCK [SEQ ID NO: 31]”, the Trypsin entry in data set [1] was “Partially Resistant”. The Reduction result in data set [2] is “Not Resistant”.
As for “GSSCAKPRENCNRMNILCCRGECVCPTFGDCFCYGD [SEQ ID NO: 10]”, the Trypsin entry in data set [1] is reported as “Not Resistant”. Moreover, the Pepsin result in data set [4] is “Resistant”. Further, the “Temperature (70° C.)” value in data set [5] is recorded as “Resistant”. Besides, the Reduction entry in data set [2] is “Not Resistant”.
In the case of “GSGVPINVRCRGSRDCLDPCRRAGMRFGRCINSRCHCTP [SEQ ID NO: 55]”, in data set [3], the “Signal ratio Kidney:Blood (3 hours)” value was 42.2 and 42.4; the “Signal ratio Kidney:Blood (24 hours)” value is reported as 10.7; the “Pixel density-Bkg/area (3 hours)” value is on record as 2.73E+07; the “Pixel density-Bkg/area (24 hours)” value was found to be 2.25E+06.
For the sequence “GSEVIRCSGSKQCYGPCKQQTGCTNSKCMNKVCKCYGCG [SEQ ID NO: 8]”, the Trypsin entry in data set [1] was “Partially Resistant”. Besides, the “Temperature (70° C.)” value in data set [5] is “Resistant”. The Reduction result in data set [2] is reported as “Not Resistant”.
Take “GSSEKDCIKHLQRCRENKDCCSKKCSRRGTNPEKRCR [SEQ ID NO: 9]”: in data set [1], the Trypsin result is “Partially Resistant”. Also, in data set [2], the Reduction result is “Not Resistant”.
Consider “GSGVPINVKCRGSRDCLDPCKKAGMRFGKCINSKCHCTP [SEQ ID NO: 11]”, for which the Trypsin result in data set [1] is reported as “Resistant”. Further, the Pepsin entry in data set [4] is “Resistant”. Moreover, the Reduction result in data set [2] was “Resistant”.
Turning to “GSCIGEGVPCDENDPRCCFGLVCLKPTLHGIWYKSYYCYKK [SEQ ID NO: 30]”, in data set [1], the Trypsin result was “Partially Resistant”. Further, in data set [2], the Reduction result was “Not Resistant”.
In the case of “GSSERDCIRHLQRCRENRDCCSRRCSRRGTNPERRCR [SEQ ID NO: 56]”, in data set [3], the “Signal ratio Kidney:Blood (3 hours)” value was determined as 29.9, the “Signal ratio Kidney:Blood (24 hours)” value is 7.5, the “Pixel density-Bkg/area (3 hours)” value came to 1.48E+07 and the “Pixel density-Bkg/area (24 hours)” value amounted to 2.30E+06.
For the sequence “GSGDCLPHLRRCRENNDCCSRRCRRRGANPERRCR [SEQ ID NO: 59]”, in data set [3], the “Signal ratio Kidney:Blood (3 hours)” value was 31.2, the “Signal ratio Kidney:Blood (24 hours)” value was found to be 6.1, the “Pixel density-Bkg/area (3 hours)” value amounted to 3.47E+07 and the “Pixel density-Bkg/area (24 hours)” value is reported as 2.13E+06.
For the sequence “GSAEIIRCSGTRECYAPCQKLTGCLNAKCMNKACKCYGCV [SEQ ID NO: 28]”, the Trypsin result in data set [1] was “Not Resistant”. Also, the Reduction entry in data set [2] is on record as “Partially Resistant”.
Consider “GSDCLPHLRRCRADNDCCGRRCRRRGTNAERRCR [SEQ ID NO: 1]”, for which the Trypsin result in data set [1] is “Partially Resistant”. For the same sequence, in data set [2], the Reduction entry was “Not Resistant”.
As for “GSISIGIKCSPSIDLCEGQCRIRKYFTGYCSGDTCHCSG [SEQ ID NO: 7]”, the Trypsin result in data set [1] is “Partially Resistant”. Further, the “Temperature (70° C.)” value in data set [5] is “Resistant”. The Reduction entry in data set [2] is on record as “Not Resistant”.
On to “GSVVIGQRCYRSPDCYSACKKLVGKATGKCTNGRCDC [SEQ ID NO: 33]”, for which the Trypsin entry in data set [1] was “Not Resistant”. The Pepsin entry in data set [4] is “Resistant”. Also, the “Temperature (70° C.)” value in data set [5] is “Resistant”. For the same sequence, in data set [2], the Reduction result was “Not Resistant”.
Take “GSSDYCSNDFCFFSCRRDRCARGDCENGKCVCKNCHLN [SEQ ID NO: 29]”: the Trypsin result in data set [1] is on record as “Partially Resistant”. In addition, in data set [2], the Reduction entry was “Not Resistant”.
As for “GSGCFGYKCDYYKGCCSGYVCSPTWKWCVRPGPGR [SEQ ID NO: 16]”, in data set [1], the Trypsin entry is “Not Resistant”. The Pepsin result in data set [4] is listed as “Not Resistant”. Moreover, the “Temperature (70° C.)” value in data set [5] is “Resistant”. Moreover, in data set [2], the Reduction result was “Not Resistant”.
In the case of “GSQIDTNVKCSGSSKCVKICIDRYNTRGAKCINGRCTCYP [SEQ ID NO: 27]”, the Trypsin result in data set [1] is on record as “Not Resistant”. In addition, the Pepsin result in data set [4] is on record as “Not Resistant”. Besides, the “Temperature (70° C.)” value in data set [5] is “Resistant”. Also, the Reduction result in data set [2] is recorded as “Not Resistant”.
In the case of “GSQVQTNVRCQGGSCASVCRREIGVAAGRCINGRCVCYRN [SEQ ID NO: 58]”, in data set [3], the “Signal ratio Kidney:Blood (3 hours)” value was determined as 9.9, the “Signal ratio Kidney:Blood (24 hours)” value came out at 4.1, the “Pixel density-Bkg/area (3 hours)” value is 7.73E+06 and the “Pixel density-Bkg/area (24 hours)” value came to 1.30E+06.
Turning to “GSECLEIFKACNPSNDQCCKSSKLVCSRKTRWCKYQIG [SEQ ID NO: 38]”, the Trypsin entry in data set [1] is given as “Not Resistant”. In addition, the Pepsin entry in data set [4] was “Resistant”. The “Temperature (70° C.)” value in data set [5] is “Resistant”. In addition, the Reduction entry in data set [2] is given as “Not Resistant”.
